From PMC4482071

Biological target: Aspergillus nidulans (An) Rpf2 (Aspergillus nidulans)
Assay: SEC; size exclusion chromatography of the An Rpf2-Rrs1 complex in solution; conditions not given (preparation in ref. 22)

stoichiometry N: 1
Substance: Aspergillus nidulans (An) Rrs1 (natural protein)
